From PMC11077072
Like-named read-outs stand apart in the source and are kept apart here.

B1: crRNA-A2 + A2 ssDNA target (mixed)
RNA: UAAUUUCUACUAAGUGUAGAUCAUGCCAAUGCGCGACAUUC
DNA: TTCTTCGGAATGTCGCGCATTGGCATGGAAGTCACACCTT
B2: crRNA-A2 + A2 ssDNA-t target (mixed)
RNA: B1 RNA
DNA: TCGGAATGTCGCGCATTGGCATGGAAGTCACACCTT
B3: crRNA-A19 + A19 ssDNA target (mixed)
RNA: UAAUUUCUACUAAGUGUAGAUGACAUUUUGCUCUCAAGCUG
DNA: ATTGAACCAGCTTGAGAGCAAAATGTCTGGTAAAGGCCAA
B4: crRNA-A19 + A19 ssDNA-t target (mixed)
RNA: B3 RNA
DNA: AACCAGCTTGAGAGCAAAATGTCTGGTAAAGGCCAA

Legend:
[1] = biological target: T1, LbCas12a (Cas12a, NEB M0653T) (Lachnospiraceae bacterium, UniProt A0A5S8WF58 1-1228); experiment: activation kinetics
[2] = biological target: T1, LbCas12a (Cas12a, NEB M0653T); experiment: activation kinetics; remark: listed apart in the source

Binder | Kd [1] [nM] | Kd [2] [nM]
B1 | 1.1 ± 0.4 | –
B2 | 1.4 ± 0.7 | –
B3 | – | 0.36 ± 0.26
B4 | – | 0.3 ± 0.25
